Key:
MapADO [1] = target: T1, MapADO (Moesziomyces aphidis, UniProt W3VHW6); assay: inhibition of isoeugenol conversion; type: cell-based; details: equimolar to isoeugenol; enzyme preparation not stated in main text
T1 construct: gene PaG_05861
T1 sequence (W3VHW6 2-548): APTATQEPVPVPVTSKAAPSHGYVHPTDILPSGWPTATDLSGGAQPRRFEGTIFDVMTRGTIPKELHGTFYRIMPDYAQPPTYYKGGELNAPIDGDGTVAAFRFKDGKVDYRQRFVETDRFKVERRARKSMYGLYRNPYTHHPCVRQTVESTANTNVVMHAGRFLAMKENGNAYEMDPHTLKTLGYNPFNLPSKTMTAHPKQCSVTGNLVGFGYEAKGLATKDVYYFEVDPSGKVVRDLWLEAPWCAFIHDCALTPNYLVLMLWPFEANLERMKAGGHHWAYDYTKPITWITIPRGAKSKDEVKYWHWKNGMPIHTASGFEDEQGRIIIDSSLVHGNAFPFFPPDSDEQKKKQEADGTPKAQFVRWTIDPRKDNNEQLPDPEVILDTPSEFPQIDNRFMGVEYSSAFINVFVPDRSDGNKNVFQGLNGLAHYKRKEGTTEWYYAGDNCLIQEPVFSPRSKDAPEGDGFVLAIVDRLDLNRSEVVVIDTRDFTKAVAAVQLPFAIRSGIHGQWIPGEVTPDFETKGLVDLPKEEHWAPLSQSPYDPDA

MapADO [2] = target: T1, MapADO; assay: X-ray crystal structure (cocrystallization); type: binding; details: 40-fold molar excess ligand; front pocket at Fe2+
MapADO [3] = target: T1, MapADO; assay: inhibition of isoeugenol conversion; type: cell-based; details: equimolar to isoeugenol; enzyme preparation not stated in main text; suggested competitive
[4] = substrate: CC=Cc1ccc(O)c(OC)c1; assay: spectrophotometric monitoring of vanillin formation; type: biochemical, Thermothelomyces thermophilus; details: co-substrate O2; Fe2+ enzyme
Text: spectrophotometric monitoring of vanillin formation on ADO (TtCCO)

[5] = substrate: CC=Cc1ccc(O)c(OC)c1; assay: as above; type: biochemical, Moesziomyces aphidis; details: co-substrate O2; Fe2+ enzyme
Text: spectrophotometric monitoring of vanillin formation on MapADO

Q: How did the “% reduction of 1a conversion” value (MapADO [1]) turn out when `COc1cc(C=O)ccc1O` [compound 1, vanillin] was run?
A: 60%

Q: What about the “X-ray crystal structure (cocrystallization)” value (MapADO [2]) of the same molecule?
A: In the 1-bound structure (PDB ID: 9G89), interactions include hydrophobic contacts

Q: `COc1cccc(C=O)c1O` [compound 5, ortho-vanillin] was tested. Which “% inhibition” value (MapADO [3]) did it give?
A: 25%

Q: With `O=Cc1ccc(O)cc1` [compound 3, 4-hydroxybenzaldehyde] as the molecule, how does the “X-ray crystal structure (cocrystallization)” value (MapADO [2]) read?
A: The 3-bound structure (PDB ID: 9G8A) shows similar hydrophobic interactions and hydrogen bonds

B1: ADO (TtCCO) (Thermothelomyces thermophilus ATCC 42464) (protein)
chain: MAHIHDLAPEVSNYSSGRLTPPTPVRFPRTPVFASMNKPCRFEGDVFDLEVSGAIPPDIDGTFFRVQPDHRFPPLFEDDIHFNGDGSVTAIRISGGHADLRQRYVRTERYLLETRARRSLFGRYRNPWTDNESVRGVIRTASNTNVVFWRGALLAMKEDGPPFAMDPVTLETLGRYDFEGQILSPTFTAHPKIDPDTGEMVCFAYEAGGDGSDCSVDVAVWTVDADGKKVEECWYKAPFAGMIHDCGITKNWVVLPLTPIKMDLERMKRGGNKFAWDPSEDQWYGVVPRRGAKSDDIIWFRADNGFHGHVAGCYELPSGEIVFDLTVADGNVFFFFPPDDNITPPADGVAKRNRLSSPTVRWIFDPKAKKSAIRTEAAGDADIWVADERVKPALTWPTNGEFSRIDDRYVTKPYRHFWQAVVDPTRPYDFEKCGPPAGGLFNCLGHYTWSDQNYHHGHNTGDPSGDGRSNGSAEEATAGKFGLQDVYFAGPTMTFQEPTFIPRQGAAEGEGYLIALLNHLDELRNDVVIFEARNLGKGPLAVIHLPLKLKLGLHGNWVDSREIEAWRRRRAENGDVGPLRVAKEPLPWQKKFAAAAQNGSNGV
notes: purified recombinant; construct details not given; genus given only as T
Q: For B1, which Km [4] is on record?
A: 2.240 ± 0.264 mM

Q: What about the Vmax [4] of the same molecule?
A: 43 µmol/min/mg

Q: And the kcat [4]?
A: 44 s⁻¹

B2: MapADO (Moesziomyces aphidis) (protein)
chain: T1 sequence (W3VHW6 2-548)
Q: B2 was tested. Which Km [5] did it give?
A: 0.118 ± 0.013 mM

Q: And the Vmax [5]?
A: 231 µmol/min/mg

Q: What about the kcat [5] of the same molecule?
A: 238 s⁻¹
